# How the values were obtained:
# Test in all cases: In vitro phosphorylation kinetics with recombinant Akt
# Assay type in all cases: biochemical
# Details in all cases: other: recombinant Akt; n = 3
# [1] = tested on: CC(C)[C@H](NC(=O)[C@H](CCC(=O)O)NC(=O)[C@H](CCC(=O)O)NC(=O)[C@H](Cc1ccc(O)cc1)NC(=O)[C@H](CCC(=O)O)NC(=O)[C@H](CC(=O)O)NC(=O)[C@H](CC(=O)O)NC(=O)[C@H](CCC(=O)O)NC(=O)[C@@H](CCCNC(=N)N)NC(=O)[C@@H](CCCNC(=N)N)NC(=O)[C@@H](CCCNC(=N)N)NC(=O)[C@H](C)N(C)C(=O)[C@H](Cc1ccccc1)NC(=O)[C@@H](NC(=O)[C@H](Cc1ccccc1)NC(=O)[C@H](C)NC(=O)[C@H](CCCNC(=N)N)N(C)C(=O)[C@@H]1CCCN1C(=O)[C@H](CCCNC(=N)N)NC(=O)CNC(=O)c1ccc2c(c1)C1(OC2=O)c2ccc(O)cc2Oc2cc(O)ccc21)[C@@H](C)O)C(N)=O
# [2] = tested on: CC(C)[C@H](NC(=O)[C@H](CCC(=O)O)NC(=O)[C@H](CCC(=O)O)NC(=O)[C@H](Cc1ccc(O)cc1)NC(=O)[C@H](CCC(=O)O)NC(=O)[C@H](CC(=O)O)NC(=O)[C@H](CC(=O)O)NC(=O)[C@H](CCC(=O)O)NC(=O)CCCCCNC(=O)[C@H](C)N(C)C(=O)[C@H](Cc1ccccc1)NC(=O)[C@@H](NC(=O)[C@H](Cc1ccccc1)NC(=O)[C@H](C)NC(=O)[C@H](CCCNC(=N)N)N(C)C(=O)[C@@H]1CCCN1C(=O)[C@H](CCCNC(=N)N)NC(=O)CNC(=O)c1ccc2c(c1)C1(OC2=O)c2ccc(O)cc2Oc2cc(O)ccc21)[C@@H](C)O)C(N)=O
# [3] = tested on: CC(C)[C@H](NC(=O)[C@H](CCC(=O)O)NC(=O)[C@H](CCC(=O)O)NC(=O)[C@@H]1Cc2ccc(O)cc2CN1C(=O)[C@H](CCC(=O)O)NC(=O)[C@H](CC(=O)O)NC(=O)[C@H](CC(=O)O)NC(=O)[C@H](CCC(=O)O)NC(=O)[C@@H](CCCNC(=N)N)NC(=O)[C@@H](CCCNC(=N)N)NC(=O)[C@@H](CCCNC(=N)N)NC(=O)[C@H](C)N(C)C(=O)[C@H](Cc1ccccc1)NC(=O)[C@@H](NC(=O)[C@H](Cc1ccccc1)NC(=O)[C@H](C)NC(=O)[C@H](CCCNC(=N)N)N(C)C(=O)[C@@H]1CCCN1C(=O)[C@H](CCCNC(=N)N)NC(=O)CNC(=O)c1ccc2c(c1)C1(OC2=O)c2ccc(O)cc2Oc2cc(O)ccc21)[C@@H](C)O)C(N)=O
substance,measurement,setting,value
recombinant Akt (Homo sapiens),Km,[1],14 ± 3 µM
same,kcat,[1],0.7 ± 0.1 s⁻¹
same,Km,[2],28 ± 16 µM
same,kcat,[2],1.0 ± 0.4 s⁻¹
same,Km,[3],17 ± 5 µM
same,kcat,[3],0.8 ± 0.1 s⁻¹
